This is an account of results in article PMC10873366, “DNA binding redistributes activation domain ensemble and accessibility in pioneer factor Sox2” (Nature Communications, 2023).

The assay concerns the target T1, Sox2 C-terminal intrinsically disordered region (C-IDR).
T1 chain: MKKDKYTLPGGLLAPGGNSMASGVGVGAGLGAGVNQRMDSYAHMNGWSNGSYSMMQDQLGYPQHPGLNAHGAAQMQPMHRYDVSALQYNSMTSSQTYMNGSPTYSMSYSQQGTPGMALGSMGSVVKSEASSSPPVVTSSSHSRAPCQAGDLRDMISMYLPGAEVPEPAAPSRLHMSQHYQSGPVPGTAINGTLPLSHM
In words: NMR titration; 15N-labelled C-IDR titrated with unlabelled N-DBD; 1H15N HSQC chemical shift changes of highly perturbed residues fitted to a 1:1 binding equation; 20 mM NaH2PO4, 50 mM NaCl, 5 mM DTT, pH 5.5, 15 °C. Particulars: both partners purified.

B1: Sox2 N-terminal domain and DBD (N-DBD) (domain or fragment)
chain: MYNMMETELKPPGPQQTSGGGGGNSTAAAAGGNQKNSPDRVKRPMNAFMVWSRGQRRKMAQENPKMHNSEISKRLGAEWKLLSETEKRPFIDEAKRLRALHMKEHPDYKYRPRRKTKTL
modifications: Limits are not printed. They are inferred from 109 expected HSQC peaks (119 residues minus 9 Pro and the N-terminal Met) and from the C-IDR starting at 120. The NMR sample was 15N(/13C)-labelled or …
For B1, the Kd was 80 ± 4 µM.

As usually defined, the Kd is the equilibrium constant for the complex coming apart.
